One assay has as its target T1, Stat3 (Mus musculus, UniProt P42227).
T1 construct: endogenous in cells; host or cells: B16 murine melanoma cells (nuclear extracts)
Put plainly: EMSA of Stat3 DNA-binding activity in nuclear extracts of transfected B16 cells. The format is cell-based, murine. The following applies: B16 cells transfected with Stat3β, hSIE probe. The procedure: FIG. 1. Inhibition of endogenous Stat3 (SEQ. ID. NO: 1; SEQ. ID. NO:2) DNA-binding activity in B16 cells by overexpression of Stat3β (SEQ. ID. NO:3; SEQ. ID. NO:4). EMSA was performed with nuclear extracts prepared from B16 cells transfected with no DNA (lane 1), empty vector (lane 2) or Stat3β expression vector (lane 3). Extracts from NIH3T3 fibroblasts stimulated with EGF were used as a positive control for Stat1 and Stat3 (lane 4). Supershifts were performed using antibodies recognizing either Stat3 (α-ST3) or Stat3:3 (α-ST3β) with extracts derived from B16 cells transfected with no DNA (lanes 5-7), the empty vector (lanes 8-10), or Stat3β vector (lanes 11-13). ST3:3, and ST1:3, ST1:1 indicate migration of complexes containing Stat3 or Stat3β homodimers, Stat1/Stat3 heterodimers and Stat1/Stat1 homodimers, respectively. The asterisk indicates the position of supershifted complexes.
Nuclear extracts and EMSA. Nuclear extract preparation and EMSA analysis of STAT DNA-binding activity were performed as previously described Catlett-Falcone et al., 1999, supra.
EGF-induced Stat3 binding activity in NIH3T3 (lane 4) was used as a positive control. By supershift analysis with antibody that recognizes Stat3 but not Stat3β or antibody that recognizes Stat3β but not Stat3, it was shown that there were Stat3-Stat3 homodimers in mock-transfected B16 cells and empty vector-transfected B16 cells.

Assay [1] relates to B16 cells. The assay is described as follows: Cell growth inhibition assay, live cells by trypan blue exclusion. It counts as cell-based, murine. The note with it: 48 h later, vs pIRES-EGFP. On the procedure: Cell growth inhibition assay. Cells were plated at 1.7×10^5 cells/well in 6-well plates, followed by transfection with either pIRES-EGFP or pIRES-Stat3β plasmids 24 h later. Cells were harvested at 24 h, 48 h or 72 h to determine the numbers of live cells. Cell viability was determined by trypan blue exclusion.
(§1) This G0/G1 phase arrest was observed as early as 24 hourspost transfection. At 48 hours post transfection with Stat3β vector, Annexin V-PE staining followed by FACS analysis to detect apoptotic activity was performed with transfected B16 cells. A high level of apoptosis in Stat3β transfected cells (75%) relative to empty vector transfected cells (25%) was observed, as shown in FIG. 2C. Increased levels of apoptosis as a result of Stat3β transfection was confirmed by confocal laser scanning microscope analysis using rhodamine-labelled TUNEL assay.

Assay [2] relates to B16 cells. Put plainly: Cell cycle analysis by propidium iodide staining and FACS. It counts as cell-based, murine. The following applies: transfected B16 cells, from 24 hours post transfection. On the procedure: Cell cycle analysis. Cell cycle analysis based on DNA content was performed. Cells were harvested, washed twice in PBS and resuspended in 70% ethanol on ice for at least 30 min. After centrifugation, cells were resuspended in 1 ml of propidium iodide staining solution (50 μg propidium iodide, 1 mg RNase A and 1 mg glucose per ml PBS) and incubated at room temperature for 30 min. The cells were analyzed by FACS using ModFit LT cell cycle analysis software (Verity Software, Topsham, Me.). Cells transfected with vectors encoding EGFP were fixed in 1 ml of 0.5% formaldehyde on ice for 10 min. before adding 70% ethanol.
as §1

In assay [3] the test system is B16 cells. The assay is described as follows: Apoptosis assay, Annexin V-PE staining and FACS. It counts as cell-based, murine. The note with it: 48 hours post transfection; empty vector 25%. On the procedure: Apoptosis assay. B16 cells transfected with pIRES-EGFP or pIRES-Stat3β were washed with CellScrub™ buffer (Gene Therapy Systems, San Diego, Calif.) 24 h after transfection. Apoptosis of transiently-transfected B16 cells was analyzed after staining with Annexin V-PE by two-color flow cytometry. Apoptosis of non-transfected tumor cells in the upper chambers of Transwell units was analyzed after staining with Annexin V-PE and VIA-PROBE™ 7-AAD (Pharmingen, San Diego, Calif.) by two-color flow cytometry.
as §1

Assay [4] deals with B16 cells. The assay is described as follows: RNase protection assays of cytokine and chemokine RNA in B16 cells. The format is cell-based, murine. The following applies: 36 h after transfection. On the procedure: FIG. 7A-B. Stat3β expression in B16 cells upregulates the expression of pro-inflammatory chemokines and cytokines, which can stimulate peritoneal macrophages to produce NO. Elevated expression of pro-inflammatory cytokines and chemokines in B16 cells as a result of Stat3β expression (A. TNF-α, IL-6, IFN-β; B. IP-10). Total RNAs were prepared form mock-transfected, GFP-transfected, Stat3β-transfected and UV-irradiated B16 cells. Data shown have been confirmed with at least one more experiment, in which RNAs were prepared from independent transfectants and UV-irradiated B16 tumor cells.
RNase protection assays. 10 μg of total RNA isolated from either pIRES-EGFP- or pIRES-Stat3 β-transfected B16 cells (36 h after transfection) was hybridized to multi-template probes from PharMingen (mCK-5, Top Panel; mCK-3, Lower Panel) that were labeled with ^32P-dUTP using in vitro transcription. The RNA encoded by GAPDH housekeeping gene was used to normalize the amounts of RNAs loaded in each lane. Similar protocols were used to determine RNA expression profiles of macrophages treated with supernatants derived from B16 cells transfected with either Stat3β or GFP vector. […]
RNA expression profiles of a number of cytokines and chemokines in pIRES-Stat3β transfected B16 cells were determined. […]

Assay [5] relates to peritoneal macrophages and lymphocytes. Put plainly: Mice injected with transfected B16 cells: macrophage NO production and lymphocyte IFN-γ ELISPOT. The format is in vivo. The following applies: transfected B16 cells injected into mice. The procedure:
FIG. 9A-B. Expression of Stat3β in tumor cells leads to activation of macrophages and T lymphocytes in vivo. Mice were injected with B16 cells (2×10^6/mouse) transfected with either GFP or Stat3β expression vectors. Five days later, peritoneal macrophages and lymphocytes were tested for NO production and IFN-γ production, respectively. A. NO production by peritoneal macrophages. B. IFN-γ ELISPOT of lymphocytes.
In addition to direct tumoricidal effect shown herein with production of NO by macrophages, innate immunity critically impacts the development of adaptive immune responses. […] Furthermore, a four-fold increase in IFN-γ production by lymphocytes derived from mice injected with Stat3β-transfected B16 cells was also detected (FIG. 9B).

This is an account of results in patent US20090227489A1, “STAT3 Agonists and Antagonists and Therapeutic Uses Thereof” (Johns Hopkins University, priority 2000, published 2009).

T1 sequence (P42227 whole entry): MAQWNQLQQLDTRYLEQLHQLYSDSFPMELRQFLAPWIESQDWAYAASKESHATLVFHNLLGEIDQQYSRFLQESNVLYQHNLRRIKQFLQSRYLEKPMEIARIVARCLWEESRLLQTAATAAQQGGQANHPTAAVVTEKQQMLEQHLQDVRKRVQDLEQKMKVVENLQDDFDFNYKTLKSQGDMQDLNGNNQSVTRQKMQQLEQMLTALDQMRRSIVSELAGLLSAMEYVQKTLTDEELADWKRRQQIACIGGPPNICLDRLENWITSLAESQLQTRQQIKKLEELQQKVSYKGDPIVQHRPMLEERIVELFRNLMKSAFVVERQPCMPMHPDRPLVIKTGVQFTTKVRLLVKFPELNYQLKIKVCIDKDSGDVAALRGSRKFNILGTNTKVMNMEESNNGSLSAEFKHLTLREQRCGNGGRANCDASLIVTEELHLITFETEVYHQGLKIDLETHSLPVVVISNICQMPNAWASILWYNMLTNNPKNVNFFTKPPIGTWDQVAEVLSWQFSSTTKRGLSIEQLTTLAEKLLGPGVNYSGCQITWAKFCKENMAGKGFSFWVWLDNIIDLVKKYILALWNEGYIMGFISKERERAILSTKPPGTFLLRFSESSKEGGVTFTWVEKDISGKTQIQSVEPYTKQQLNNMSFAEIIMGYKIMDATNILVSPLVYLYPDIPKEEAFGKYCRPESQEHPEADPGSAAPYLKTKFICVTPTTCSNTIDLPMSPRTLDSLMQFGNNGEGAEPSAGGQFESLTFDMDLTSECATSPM

B1: Stat3β: dominant-negative Stat3 variant, truncated form lacking the transactivation domain; delivered by the pIRES-Stat3β expression vector (protein)
chain: AQWNQLQQLDTRYLEQLHQLYSDSFPMELRQFLAPWIESQDWAYAASKESHATLVFHNLLGEIDQQYSRFLQESNVLYQHNLRRIKQFLQSRYLEKPMEIARIVARCLWEESRLLQTAATAAQQGGQANHPTAAVVTEKQQMLEQHLQDVRKRVQDLEQKMKVVENLQDDFDFNYKTLKSQGDMQDLNGNNQSVTRQKMQQLEQMLTALDQMRRSIVSELAGLLSAMEYVQKTLTDEELADWKRRQQIACIGGPPNICLDRLENWITSLAESQLQTRQQIKKLEELQQKVSYKGDPIVQHRPMLEERIVELFRNLMKSAFVVERQPCMPMHPDRPLVIKTGVQFTTKVRLLVKFPELNYQLKIKVCIDKDSGDVAALRGSRKFNILGTNTKVMNMEESNNGSLSAEFKHLTLREQRCGNGGRANCDASLIVTEELHLITFETEVYHQGLKIDLETHSLPVVVISNICQMPNAWASILWYNMLTNNPKNVNFFTKPPIGTWDQVAEVLSWQFSSTTKRGLSIEQLTTLAEKLLGPGVNYSGCQITWAKFCKENMAGKGFSFWVWLDNIIDLVKKYILALWNEGYIMGFISKERERAILSTKPPGTFLLRFSESSKEGGVTFTWVEKDISGKTQIQSVEPYTKQQLNNMSFAEIIMGYKIMDATNILVSPLVYLYPDIPKEEAFGKYCRPESQEHPEADPGAAPYLKTKFICVTFIDAVWK
On to B1, for which the “Stat3 DNA-binding complexes (supershift analysis)” value with Stat3 is on record as “mostly Stat3β-Stat3β homodimer formation”. The “number of live B16 cells” value with B16 cells [1] was “decreases dramatically”. The cell cycle distribution result in the assay on B16 cells [2] is given as “progressive accumulation in G0/G1 phase”. Further, the level of apoptosis in the assay on B16 cells [3] is recorded as 75%. The “expression levels of IL-4 and IL-10 mRNAs” value in the assay with B16 cells [4] was “but not IL-4 and IL-10, were elevated”. Also, the “expression levels of IFN-β, TNF-α, IL-6 and IP-10 mRNAs” value in the assay with B16 cells [4] (vs mock, control vector and UV-irradiated B16 cells) is on record as “elevated”. Besides, the “increase in IFN-γ production by lymphocytes” value in assay [5] (ELISPOT) is “four-fold”. Moreover, the “NO production by peritoneal macrophages” value in assay [5] (five days later) was “clear induction of NO production”.
